From the supplement of paper PMC7125110
± gives the standard error. This sample holds only a part of the variants without activity.

B1: glmS ribozyme (parent)
chain: AUAAAAGCGCCAGAACUACAGAAAUGUAGUUGACGAGGAGGAGGUUUAUCGAAUUUUCGGCGGAUGCCUCCAAA

Columns and labels:
Details in all cases: with glucosamine-6-phosphate
glucosamine-6-phosphate [1] = variants of: B1; assay: self-cleavage kobs at 640 uM GlcN6P; higher = faster cleavage; RNA array
Method in brief: (§1)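 Tiles of sequenced MiSeq chips were imaged over ~14 h at 37 °C. On them, barcoded ribozyme variants had been transcribed in situ by E. coli RNA polymerase and were tracked via a hybridised Cy3 probe while glucosamine-6-phosphate (40 μM to 10 mM) in HEPES/KCl/Mg(OAc)2 buffer flowed in. Per-tile medians, normalised to baseline and to non-cleaving reference variants, were fit to one- or two-exponential decays for kobs, and weighted Michaelis–Menten fits gave kcat and KM.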

glucosamine-6-phosphate [2] = variants of: B1; assay: self-cleavage kobs at 10000 uM GlcN6P; higher = faster cleavage; RNA array
Method in brief: as §1

glucosamine-6-phosphate [3] = variants of: B1; assay: self-cleavage kobs at 2500 uM GlcN6P; higher = faster cleavage; RNA array
Method in brief: as §1

Variant	self-cleavage kobs at 640 uM GlcN6P (glucosamine-6-phosphate [1])	self-cleavage kobs at 10000 uM GlcN6P (glucosamine-6-phosphate [2])	self-cleavage kobs at 2500 uM GlcN6P (glucosamine-6-phosphate [3])
AUAAAAGCGCCAGAACUACAGAAAUGUAGUUGAGCAGGAGGAGGUUUAUCGAAUUUUCGCCGGAUGCGUCCAAA [C34G G35C G60C C68G]	6.81e-05 ± 3.1e-05 s⁻¹		
AUAAAAGCGCCAGAACUACAGAAAUGUAGUUGACAAGGAGGAGGUUUAUUGAAUUUUCGGCGGAUGGCUUCAAA [G35A C50U C67G C70U]	< 1e-05 s⁻¹		
AUAAAAGCGCCAGAACUACAGAAAUGUAGUUGACAAGGAGGAGGGUUAUCGAAUUUCCGGCGGAUGCCUCCAAA [G35A U45G U57C]	< 1e-05 s⁻¹		
AUAAAAGCGCCAGAACUACAGAAAUGUAGUUGACCAGGAGGAGCUUUAUCGAAUUUUCGGCGGAUGCCUCCAAA [G35C G44C]	< 1e-05 s⁻¹	< 1e-05 s⁻¹	
AUAAAAGCGCCAGAACUACAGAAAUGUAGUUGACCAGGAGGAUGUUUAUCGUAUUUUCGGUGGAUGCCUCCAAA [G35C G43U A52U C61U]	< 1e-05 s⁻¹		< 1e-05 s⁻¹
AUAAAAGCGCCAGAACUACAGAAAUGUAGUUGACAAGGAGUAGGUAUAUCGAAUUUUCGGCGGAUGCCUCCAAA [G35A G41U U46A]	< 1e-05 s⁻¹		< 1e-05 s⁻¹
AUAAAAGCGCCAGAACUACAGAAAUGUAGUUGAGGAGGAGGAGGUUUAUCGAAAUUUCGGCGGGUGCCUCCAAA [C34G U54A A64G]	< 1e-05 s⁻¹		< 1e-05 s⁻¹
AUAAAAGCGCCAGAACUACAGAAAUGUAGUUGAUGAGGAGGAGGUUUAUCGAAUCUUCGGCGGAUGUCUCCAAA [C34U U55C C67U]	< 1e-05 s⁻¹		
AUAAAAGCGCCAGAACUACAGAAAUGUAGUUGAAGAGGAGGAGUUUUAUAGAAUUUUCGGCGGAUGCCUCCAAA [C34A G44U C50A]	< 1e-05 s⁻¹		
AUAAAAGCGCCAGAACUACAGAAAUGUAGUUGAUGAGGCGGAGGUUUAUGGAAUUUUCGGCGGAUGCCUCCAAA [C34U A39C C50G]	< 1e-05 s⁻¹		
AUAAAAGCGCCAGAACUACAGAAAUGUAGUUGACCAGGAGGAUGUUUAUCGAAUUUUCGCCGGAUGCCUCCAAA [G35C G43U G60C]	< 1e-05 s⁻¹	< 1e-05 s⁻¹	
AUAAAAGCGCCAGAACUACAGAAAUGUAGUUGAUGAGGAGGAGGUUUAUCAAAUUUGCGGCGGAUGCCGCCAAA [C34U G51A U57G U69G]	0.000271 ± 9.8e-05 s⁻¹	0.000296 ± 7.8e-05 s⁻¹	
AUAAAAGCGCCAGAACUACAGAAAUGUAGUUGAAAAGGAGGGGGUUUAUCGAAUUUUCGGCGGAUGCCUCCAAA [C34A G35A A42G]	< 1e-05 s⁻¹		< 1e-05 s⁻¹
AUAAAAGCGCCAGAACUACAGAAAUGUAGUUGAGGAGGAGGAGGUUUAUCGAAUUUUCGGCGGAUGCCGCCAAA [C34G U69G]	0.000107 ± 2e-05 s⁻¹		8.27e-05 ± 2.5e-05 s⁻¹
AUAAAAGCGCCAGAACUACAGAAAUGUAGUUGACAAGGAGGAGGUUUAUCGAGUUUUCGCCGGAUGCCUCCAAA [G35A A53G G60C]	< 1e-05 s⁻¹		< 1e-05 s⁻¹
AUAAAAGCGCCAGAACUACAGAAAUGUAGUUGACCUGGAAGAGGUUUAUCGAAUUUUCGGCGGAUGCCUCCAAA [G35C A36U G40A]	< 1e-05 s⁻¹		< 1e-05 s⁻¹
AUAAAAGCGCCAGAACUACAGAAAUGUAGUUGAGGAGGAGGAGGUAUAACGAAUUUUCGGCGGAUGCCUCCAAA [C34G U46A U49A]	< 1e-05 s⁻¹		
AUAAAAGCGCCAGAACUACAGAAAUGUAGUUGACCAGGAGAAGGUUUAACGAAUUUUGGGCGGAUGCCUCUAAA [G35C G41A U49A C58G C71U]	< 1e-05 s⁻¹		
AUAAAAGCGCCAGAACUACAGAAAUGUAGUUGACAAGGAGGAGGUUUAUCGAAUUUUCGGCGGACGCCCCCAAA [G35A U65C U69C]	< 1e-05 s⁻¹		
AUAAAAGCGCCAGAACUACAGAAAUGUAGUUGAUGAAGGGGAGGUUUAUCGAAUUUUCGGCGGAUGCCUCCAAA [C34U G37A A39G]	< 1e-05 s⁻¹		< 1e-05 s⁻¹
AUAAAAGCGCCAGAACUACAGAAAUGUAGUUGACAAGGAGGAGGUGUGUCGAAUUUUCGGCGGAUGCAUCUAAA [G35A U46G A48G C68A C71U]	< 1e-05 s⁻¹		< 1e-05 s⁻¹
AUAAAAGCGCCAGAACUACAGAAAUGUAGUUGACAAGGAGGAGGUUAAUGGAAGUUUCGGCGGAUGCCUCCAAA [G35A U47A C50G U54G]	0.000171 ± 6.3e-05 s⁻¹		0.000152 ± 4.7e-05 s⁻¹
AUAAAAGCGCCAGAACUACAGAAAUGUAGUUGACAAGGAGGAGGUUUAUCGAAUGUUCGGCGAGUGCCUCCAAA [G35A U55G G63A A64G]	< 1e-05 s⁻¹		

Variant	self-cleavage kobs at 640 uM GlcN6P (glucosamine-6-phosphate [1])	self-cleavage kobs at 10000 uM GlcN6P (glucosamine-6-phosphate [2])	self-cleavage kobs at 2500 uM GlcN6P (glucosamine-6-phosphate [3])
AUAAAAGCGCCAGAACUACAGAAAUGUAGUUGAGGAGGAGCAGGUUUAUCGAAUUUUCGGCGGAUGCCUCUAAA [C34G G41C C71U]	< 1e-05 s⁻¹		
AUAAAAGCGCCAGAACUACAGAAAUGUAGUUGAGGAGGAGGAGGUGUAUCGAAUUUUCGGCGGAAGCCUCCAAA [C34G U46G U65A]	< 1e-05 s⁻¹		< 1e-05 s⁻¹
AUAAAAGCGCCAGAACUACAGAAAUGUAGUUGACCAGGAAGAUGUUUAUCGAAUUUUCGGCGGAUGCCUCCAAA [G35C G40A G43U]	< 1e-05 s⁻¹		< 1e-05 s⁻¹
AUAAAAGCGCCAGAACUACAGAAAUGUAGUUGACCAGGAGGAGGUUUAACUAUUUUUCGGCGGAUGCCUCCAAA [G35C U49A G51U A53U]	< 1e-05 s⁻¹		< 1e-05 s⁻¹
AUAAAAGCGCCAGAACUACAGAAAUGUAGUUGAAGAGGAGAAGGUUUAUCGAAUUUUCGGCGGAUGCCUCCAAA [C34A G41A]	< 1e-05 s⁻¹		< 1e-05 s⁻¹
AUAAAAGCGCCAGAACUACAGAAAUGUAGUUGAUGAGGAGGAGGUUCAUCGAAUUUUCGGCGGAUGCCUCCAAA [C34U U47C]	< 1e-05 s⁻¹	< 1e-05 s⁻¹	< 1e-05 s⁻¹
AUAAAAGCGCCAGAACUACAGAAAUGUAGUUGACAAGGAGGAGAUUUAUCGAAUUUUCGGCGGAUGCCUCCAAA [G35A G44A]	< 1e-05 s⁻¹	< 1e-05 s⁻¹	< 1e-05 s⁻¹
AUAAAAGCGCCAGAACUACAGAAAUGUAGUUGACCUGGGGGAGGUUUAUCGAAUUUUCGGCGGAUGCCUCCAAA [G35C A36U A39G]	< 1e-05 s⁻¹		
AUAAAAGCGCCAGAACUACAGAAAUGUAGUUGACCCGGAAGAGGUUUAUCGAAUUUUCGGCCGGUGCCUUCAAA [G35C A36C G40A G62C A64G C70U]	< 1e-05 s⁻¹		< 1e-05 s⁻¹
AUAAAAGCGCCAGAACUACAGAAAUGUAGUUGAGGGGGAGGAGGUUUAUCGAAUUUUCGGCGGAUGCCUCUAAA [C34G A36G C71U]	< 1e-05 s⁻¹		
AUAAAAGCGCCAGAACUACAGAAAUGUAGUUGAGGAGGAUGAGGUAUAUCGAAUUUUCGGCGGAUGCCUCCAAA [C34G G40U U46A]	< 1e-05 s⁻¹		
AUAAAAGCGCCAGAACUACAGAAAUGUAGUUGAUGAGGAGGAGGUUUAUCGAAUUUUCGGCGGAUGCCUACAAA [C34U C70A]	0.00139 ± 0.00062 s⁻¹		
AUAAAAGCGCCAGAACUACAGAAAUGUAGUUGAUGAGGAGGAGGUUUAUCGGAGUUUCGGCGGAUGCCUCCAAA [C34U A52G U54G]	< 1e-05 s⁻¹		< 1e-05 s⁻¹
AUAAAAGCGCCAGAACUACAGAAAUGUAGUUGAUCAGGAGGAGGUUUAUUGAAUUUUCGGCGGAUGACUCCAAA [C34U G35C C50U C67A]	< 1e-05 s⁻¹		< 1e-05 s⁻¹
AUAAAAGCGCCAGAACUACAGAAAUGUAGUUGAGGAGGAGGAGGUUUAUCGAAUUUUCGGCGGAGGCCUCCAAA [C34G U65G]	< 1e-05 s⁻¹	< 1e-05 s⁻¹	< 1e-05 s⁻¹
AUAAAAGCGCCAGAACUACAGAAAUGUAGUUGAAGAGGAGGAGGUGUAUCGAAUUUUCGGCCGAUGCCUCCAAA [C34A U46G G62C]	< 1e-05 s⁻¹		
AUAAAAGCGCCAGAACUACAGAAAUGUAGUUGAUGAGGAGGAGGUUUAUCCAAAUUUCGGCGGAUGCCUCCAAA [C34U G51C U54A]	< 1e-05 s⁻¹		< 1e-05 s⁻¹
AUAAAAGCGCCAGAACUACAGAAAUGUAGUUGAUGAGGAGGAGGUUUAACGAAUGUUCGGUGGAUGCGUCCAAA [C34U U49A U55G C61U C68G]	0.000585 ± 0.00016 s⁻¹		
AUAAAAGCGCCAGAACUACAGAAAUGUAGUUGACAAUGAGGAGGUUUAUCGAAUUUUAGGCGGAUGCCUACAAA [G35A G37U C58A C70A]	0.000632 ± 0.00016 s⁻¹		
AUAAAAGCGCCAGAACUACAGAAAUGUAGUUGAUGAGGAGGAUGUUUAUCGAAUUUUCCGCGGAUGCCUCCAAA [C34U G43U G59C]	< 1e-05 s⁻¹		< 1e-05 s⁻¹
AUAAAAGCGCCAGAACUACAGAAAUGUAGUUGAAGAGGACGAGGUUUAUCGAAUUUUCGGUGGAUGCCUCCAAA [C34A G40C C61U]	< 1e-05 s⁻¹		
AUAAAAGCGCCAGAACUACAGAAAUGUAGUUGAUGAGGAGGAGGUUUAUCGAAUAUGCGGUGGAUGCCUCCAAA [C34U U55A U57G C61U]	< 1e-05 s⁻¹	< 1e-05 s⁻¹	
